# In publication PMC10182836:
# Target: H3-tailless nucleosomes (nucleosomes with the first 33 residues of H3 removed) (human) (UniProt P04908)
row,Substance,fold reduction of S1/2 on H3-tailless nucleosomes [fold]
1,Cbf1ΔN (residues 209–351) (from UniProt P17106 209-351) (domain or fragment),1.3
2,Pho4ΔN (AA 250–312) (from UniProt P07270 250-312) (domain or fragment),3.1
